Molecular target: the molecule itself
Experiment: SEC-MALS

B1: Pseudomonas aeruginosa PAO1 glutamyl-tRNA synthetase (enzyme, UniProt Q9XCL6 1-494, looked up)
chain: MTTVRTRIAPSPTGDPHVGTAYIALFNLCFARQHGGQFILRIEDTDQLRSTRESEQQIYDALRWLGIEWDEGPDVGGPHGPYRQSERGHIYKKYSDELVEKGHAFTCFCTPERLDAVRAEQMARKETPRYDGHCMHLPKDEVQRRLAAGESHVTRMKVPTEGVCVVPDMLRGDVEIPWDRMDMQVLMKADGLPTYFLANVVDDHLMGITHVLRGEEWLPSAPKLIKLYEYFGWEQPQLCYMPLLRNPDKSKLSKRKNPTSITFYERMGYLPQALLNYLGRMGWSMPDEREKFTLAEMIEHFDLSRVSLGGPIFDLEKLSWLNGQWIREQSVEEFAREVQKWALNPEYLMKIAPHVQGRVENFSQIAPLAGFFFSGGVPLDASLFEHKKLDPTQVRQVLQLVLWKLESLRQWEKERITGCIQAVAEHLQLKLRDVMPLMFPAITGHASSVSVLDAMEILGADLSRYRLRQALELLGGASKKETKEWEKIRDAIPG
With B1 the “stoichiometry N” value was 2.

Reference: paper PMC12088422 (Proceedings of the National Academy of Sciences of the …, 2025)
